Experimental data: article PMC2212392
Like-named read-outs stand apart in the source and are kept apart here.

Columns and labels:
Assay in all cases: SPR
[1] = molecular target: soluble mCD2 comprising the extracellular region of mCD2 (mouse) (UniProt P08920)
[2] = molecular target: soluble mCD2 comprising the extracellular region of mCD2 (mouse) (UniProt P08920); remark: listed apart in the source
[3] = molecular target: soluble mCD2 comprising the extracellular region of mCD2 (mouse) (UniProt P08920); remark: listed apart in the source

Sequence of UniProt P08920 (P08920 23-203): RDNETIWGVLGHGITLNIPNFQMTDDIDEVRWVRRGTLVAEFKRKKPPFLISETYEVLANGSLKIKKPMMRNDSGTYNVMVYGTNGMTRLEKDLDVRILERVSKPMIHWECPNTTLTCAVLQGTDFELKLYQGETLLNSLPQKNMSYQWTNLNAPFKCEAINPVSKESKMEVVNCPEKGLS

koff [1]: 22 s⁻¹
Kd [2]: 90 µM
koff [2]: > 20 s⁻¹
Kd [3]: 49 µM
Substance: soluble mCD48 (purified monomeric mouse CD48 with a COOH-terminal His-tag) (from UniProt P18181 23-217) (domain or fragment)
